Experimental data from patent US20250171562A1 (ALK ABELL, published 2025).

Target: T1, recombinant human IgE (human, UniProt P01854-1 1-428)
T1 construct: made in-house (ALK); preloaded on immobilised FcεRIα in the displacement ELISA
Test: IgE-FcεRIα displacement ELISA
Procedure, shortened: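 sdAbs at pM–μM were incubated 1 h on preformed complexes of 13 ng/ml recombinant human IgE with avi-tag-biotinylated human FcεRIα captured on streptavidin.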

T1 sequence (P01854 other isoform, or with tags, fused parts or gaps): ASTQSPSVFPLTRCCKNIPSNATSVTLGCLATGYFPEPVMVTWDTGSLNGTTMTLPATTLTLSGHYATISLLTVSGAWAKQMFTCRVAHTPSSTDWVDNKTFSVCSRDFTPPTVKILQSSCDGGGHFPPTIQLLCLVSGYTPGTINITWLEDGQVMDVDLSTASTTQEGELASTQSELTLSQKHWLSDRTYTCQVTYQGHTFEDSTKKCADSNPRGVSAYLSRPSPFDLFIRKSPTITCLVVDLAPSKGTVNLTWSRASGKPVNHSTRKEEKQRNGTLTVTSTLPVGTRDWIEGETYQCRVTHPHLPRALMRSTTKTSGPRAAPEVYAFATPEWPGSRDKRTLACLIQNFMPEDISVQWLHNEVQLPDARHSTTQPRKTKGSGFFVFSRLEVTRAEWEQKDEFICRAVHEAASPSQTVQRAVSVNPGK

Row | EC50 | Max effect | Binder
1 |  | 30% | CIgG4F5A1(G4S)1 (Fc fusion) chain 1: GPPCPPCPAPEFLGGPSVFLFPPKPKDTLMISRTPEVTCVVVDVSQEDPEVQFNWYVDGVEVHNAKTKPREEQFNSTYRVVSVLTVLHQDWLNGKEYKCKVSNKGLPSSIEKTISKAKGQPREPQVYTLPPCQEEMTKNQVSLWCLVKGFYPSDIAVEWESNGQPENNYKTTPPVLDSDGSFFLYSRLTVDKSRWQEGNVFSCSVMHEALHNHYTQKSLSLSLGKGGGGSDVQLQESGGGLVQPGGSLRLSCAASGSIFSIDIMGWYRQAPGKQRELVATMPEGNYINYADSVKGRLTLSRDKGKNTVYLQLNSLKPEDTAVYYCYGFGVREGRGNVYWGQGTQVTVS chain 2: GPPCPPCPAPEFLGGPSVFLFPPKPKDTLMISRTPEVTCVVVDVSQEDPEVQFNWYVDGVEVHNAKTKPREEQFNSTYRVVSVLTVLHQDWLNGKEYKCKVSNKGLPSSIEKTISKAKGQPREPQVCTLPPSQEEMTKNQVSLSCAVKGFYPSDIAVEWESNGQPENNYKTTPPVLDSDGSFFLVSRLTVDKSRWQEGNVFSCSVMHEALHNHYTQKSLSLSLGKGGGGSEVQLLESGGGLVQPGGSLRLSCAASGFTFGNYDMAWVRQAPGKRPEWVSSIDTGGDITHYADSVKGRFTISRDNAKNTLYLQMNSLRPEDTAVYWCATDEEYALGPNEFDYYGQGTLVTVSS
2 |  | 20% | CIgG4F6A1(RS) (Fc fusion) chain 1: GPPCPPCPAPEFLGGPSVFLFPPKPKDTLMISRTPEVTCVVVDVSQEDPEVQFNWYVDGVEVHNAKTKPREEQFNSTYRVVSVLTVLHQDWLNGKEYKCKVSNKGLPSSIEKTISKAKGQPREPQVYTLPPCQEEMTKNQVSLWCLVKGFYPSDIAVEWESNGQPENNYKTTPPVLDSDGSFFLYSRLTVDKSRWQEGNVFSCSVMHEALHNHYTQKSLSLSLGKRSDVQLQESGGGLVQAGGSLRLSCAASGLTFGSYDMGWYRQAPGKQRELVGRIRNDGITYYADSVKGRFTMSRDNAKNTVYLQMNSLKPEDTAVYYCAADGTGLGHYDYWGQGTQVTVS chain 2: GPPCPPCPAPEFLGGPSVFLFPPKPKDTLMISRTPEVTCVVVDVSQEDPEVQFNWYVDGVEVHNAKTKPREEQFNSTYRVVSVLTVLHQDWLNGKEYKCKVSNKGLPSSIEKTISKAKGQPREPQVCTLPPSQEEMTKNQVSLSCAVKGFYPSDIAVEWESNGQPENNYKTTPPVLDSDGSFFLVSRLTVDKSRWQEGNVFSCSVMHEALHNHYTQKSLSLSLGKRSEVQLLESGGGLVQPGGSLRLSCAASGFTFGNYDMAWVRQAPGKRPEWVSSIDTGGDITHYADSVKGRFTISRDNAKNTLYLQMNSLRPEDTAVYWCATDEEYALGPNEFDYYGQGTLVTVSS
3 | 0.05 µM | 90% | CIgG4F4A1(G4S)3 (Fc fusion) chain 1: GPPCPPCPAPEFLGGPSVFLFPPKPKDTLMISRTPEVTCVVVDVSQEDPEVQFNWYVDGVEVHNAKTKPREEQFNSTYRVVSVLTVLHQDWLNGKEYKCKVSNKGLPSSIEKTISKAKGQPREPQVYTLPPCQEEMTKNQVSLWCLVKGFYPSDIAVEWESNGQPENNYKTTPPVLDSDGSFFLYSRLTVDKSRWQEGNVFSCSVMHEALHNHYTQKSLSLSLGKGGGGSGGGGSGGGGSDVQLQESGGGLVQAGGSLRLSCAVSGLSFSSMGWFRQPPGKEREFVAAISLYSGSTYYADSVKGRFTISSDNAKSTVYLQMNSLKPEDAAVYFCAADRQRTWSTFYASRQATYNYWGQGTQVTVTS chain 2: GPPCPPCPAPEFLGGPSVFLFPPKPKDTLMISRTPEVTCVVVDVSQEDPEVQFNWYVDGVEVHNAKTKPREEQFNSTYRVVSVLTVLHQDWLNGKEYKCKVSNKGLPSSIEKTISKAKGQPREPQVCTLPPSQEEMTKNQVSLSCAVKGFYPSDIAVEWESNGQPENNYKTTPPVLDSDGSFFLVSRLTVDKSRWQEGNVFSCSVMHEALHNHYTQKSLSLSLGKGGGGSGGGGSGGGGSEVQLLESGGGLVQPGGSLRLSCAASGFTFGNYDMAWVRQAPGKRPEWVSSIDTGGDITHYADSVKGRFTISRDNAKNTLYLQMNSLRPEDTAVYWCATDEEYALGPNEFDYYGQGTLVTVSS
4 | 0.4 µM | 65% | CIgG4F5A1(G4S)3 (Fc fusion) chain 1: GPPCPPCPAPEFLGGPSVFLFPPKPKDTLMISRTPEVTCVVVDVSQEDPEVQFNWYVDGVEVHNAKTKPREEQFNSTYRVVSVLTVLHQDWLNGKEYKCKVSNKGLPSSIEKTISKAKGQPREPQVYTLPPCQEEMTKNQVSLWCLVKGFYPSDIAVEWESNGQPENNYKTTPPVLDSDGSFFLYSRLTVDKSRWQEGNVFSCSVMHEALHNHYTQKSLSLSLGKGGGGSGGGGSGGGGSDVQLQESGGGLVQPGGSLRLSCAASGSIFSIDIMGWYRQAPGKQRELVATMPEGNYINYADSVKGRLTLSRDKGKNTVYLQLNSLKPEDTAVYYCYGFGVREGRGNVYWGQGTQVTVS chain 2: GPPCPPCPAPEFLGGPSVFLFPPKPKDTLMISRTPEVTCVVVDVSQEDPEVQFNWYVDGVEVHNAKTKPREEQFNSTYRVVSVLTVLHQDWLNGKEYKCKVSNKGLPSSIEKTISKAKGQPREPQVCTLPPSQEEMTKNQVSLSCAVKGFYPSDIAVEWESNGQPENNYKTTPPVLDSDGSFFLVSRLTVDKSRWQEGNVFSCSVMHEALHNHYTQKSLSLSLGKGGGGSGGGGSGGGGSEVQLLESGGGLVQPGGSLRLSCAASGFTFGNYDMAWVRQAPGKRPEWVSSIDTGGDITHYADSVKGRFTISRDNAKNTLYLQMNSLRPEDTAVYWCATDEEYALGPNEFDYYGQGTLVTVSS

Further lines, the binder ahead of its results:

Row | Binder | EC50 | Max effect
5 | CIgG4F4A1(G4S)1 (Fc fusion) chain 1: GPPCPPCPAPEFLGGPSVFLFPPKPKDTLMISRTPEVTCVVVDVSQEDPEVQFNWYVDGVEVHNAKTKPREEQFNSTYRVVSVLTVLHQDWLNGKEYKCKVSNKGLPSSIEKTISKAKGQPREPQVYTLPPCQEEMTKNQVSLWCLVKGFYPSDIAVEWESNGQPENNYKTTPPVLDSDGSFFLYSRLTVDKSRWQEGNVFSCSVMHEALHNHYTQKSLSLSLGKGGGGSDVQLQESGGGLVQAGGSLRLSCAVSGLSFSSMGWFRQPPGKEREFVAAISLYSGSTYYADSVKGRFTISSDNAKSTVYLQMNSLKPEDAAVYFCAADRQRTWSTFYASRQATYNYWGQGTQVTVTS chain 2: GPPCPPCPAPEFLGGPSVFLFPPKPKDTLMISRTPEVTCVVVDVSQEDPEVQFNWYVDGVEVHNAKTKPREEQFNSTYRVVSVLTVLHQDWLNGKEYKCKVSNKGLPSSIEKTISKAKGQPREPQVCTLPPSQEEMTKNQVSLSCAVKGFYPSDIAVEWESNGQPENNYKTTPPVLDSDGSFFLVSRLTVDKSRWQEGNVFSCSVMHEALHNHYTQKSLSLSLGKGGGGSEVQLLESGGGLVQPGGSLRLSCAASGFTFGNYDMAWVRQAPGKRPEWVSSIDTGGDITHYADSVKGRFTISRDNAKNTLYLQMNSLRPEDTAVYWCATDEEYALGPNEFDYYGQGTLVTVSS | 0.017 µM | 90%
6 | CIgG4F4A1(G4S)2 (Fc fusion) chain 1: GPPCPPCPAPEFLGGPSVFLFPPKPKDTLMISRTPEVTCVVVDVSQEDPEVQFNWYVDGVEVHNAKTKPREEQFNSTYRVVSVLTVLHQDWLNGKEYKCKVSNKGLPSSIEKTISKAKGQPREPQVYTLPPCQEEMTKNQVSLWCLVKGFYPSDIAVEWESNGQPENNYKTTPPVLDSDGSFFLYSRLTVDKSRWQEGNVFSCSVMHEALHNHYTQKSLSLSLGKGGGGSGGGGSDVQLQESGGGLVQAGGSLRLSCAVSGLSFSSMGWFRQPPGKEREFVAAISLYSGSTYYADSVKGRFTISSDNAKSTVYLQMNSLKPEDAAVYFCAADRQRTWSTFYASRQATYNYWGQGTQVTVTS chain 2: GPPCPPCPAPEFLGGPSVFLFPPKPKDTLMISRTPEVTCVVVDVSQEDPEVQFNWYVDGVEVHNAKTKPREEQFNSTYRVVSVLTVLHQDWLNGKEYKCKVSNKGLPSSIEKTISKAKGQPREPQVCTLPPSQEEMTKNQVSLSCAVKGFYPSDIAVEWESNGQPENNYKTTPPVLDSDGSFFLVSRLTVDKSRWQEGNVFSCSVMHEALHNHYTQKSLSLSLGKGGGGSGGGGSEVQLLESGGGLVQPGGSLRLSCAASGFTFGNYDMAWVRQAPGKRPEWVSSIDTGGDITHYADSVKGRFTISRDNAKNTLYLQMNSLRPEDTAVYWCATDEEYALGPNEFDYYGQGTLVTVSS | 0.03 µM | 90%
7 | CIgG4F5A1(G4S)2 (Fc fusion) chain 1: GPPCPPCPAPEFLGGPSVFLFPPKPKDTLMISRTPEVTCVVVDVSQEDPEVQFNWYVDGVEVHNAKTKPREEQFNSTYRVVSVLTVLHQDWLNGKEYKCKVSNKGLPSSIEKTISKAKGQPREPQVYTLPPCQEEMTKNQVSLWCLVKGFYPSDIAVEWESNGQPENNYKTTPPVLDSDGSFFLYSRLTVDKSRWQEGNVFSCSVMHEALHNHYTQKSLSLSLGKGGGGSGGGGSDVQLQESGGGLVQPGGSLRLSCAASGSIFSIDIMGWYRQAPGKQRELVATMPEGNYINYADSVKGRLTLSRDKGKNTVYLQLNSLKPEDTAVYYCYGFGVREGRGNVYWGQGTQVTVS chain 2: GPPCPPCPAPEFLGGPSVFLFPPKPKDTLMISRTPEVTCVVVDVSQEDPEVQFNWYVDGVEVHNAKTKPREEQFNSTYRVVSVLTVLHQDWLNGKEYKCKVSNKGLPSSIEKTISKAKGQPREPQVCTLPPSQEEMTKNQVSLSCAVKGFYPSDIAVEWESNGQPENNYKTTPPVLDSDGSFFLVSRLTVDKSRWQEGNVFSCSVMHEALHNHYTQKSLSLSLGKGGGGSGGGGSEVQLLESGGGLVQPGGSLRLSCAASGFTFGNYDMAWVRQAPGKRPEWVSSIDTGGDITHYADSVKGRFTISRDNAKNTLYLQMNSLRPEDTAVYWCATDEEYALGPNEFDYYGQGTLVTVSS | 0.58 µM | 55%
8 | CIgG4F5A1(RS) (Fc fusion) chain 1: GPPCPPCPAPEFLGGPSVFLFPPKPKDTLMISRTPEVTCVVVDVSQEDPEVQFNWYVDGVEVHNAKTKPREEQFNSTYRVVSVLTVLHQDWLNGKEYKCKVSNKGLPSSIEKTISKAKGQPREPQVYTLPPCQEEMTKNQVSLWCLVKGFYPSDIAVEWESNGQPENNYKTTPPVLDSDGSFFLYSRLTVDKSRWQEGNVFSCSVMHEALHNHYTQKSLSLSLGKRSDVQLQESGGGLVQPGGSLRLSCAASGSIFSIDIMGWYRQAPGKQRELVATMPEGNYINYADSVKGRLTLSRDKGKNTVYLQLNSLKPEDTAVYYCYGFGVREGRGNVYWGQGTQVTVS chain 2: GPPCPPCPAPEFLGGPSVFLFPPKPKDTLMISRTPEVTCVVVDVSQEDPEVQFNWYVDGVEVHNAKTKPREEQFNSTYRVVSVLTVLHQDWLNGKEYKCKVSNKGLPSSIEKTISKAKGQPREPQVCTLPPSQEEMTKNQVSLSCAVKGFYPSDIAVEWESNGQPENNYKTTPPVLDSDGSFFLVSRLTVDKSRWQEGNVFSCSVMHEALHNHYTQKSLSLSLGKRSEVQLLESGGGLVQPGGSLRLSCAASGFTFGNYDMAWVRQAPGKRPEWVSSIDTGGDITHYADSVKGRFTISRDNAKNTLYLQMNSLRPEDTAVYWCATDEEYALGPNEFDYYGQGTLVTVSS |  | 15%
